“And” between values parts separate entries of the source, which are not always exact repeats. Identical values can stand only once. Like-named read-outs stand apart in the source and are kept apart here.
What was measured:
[1] = target: HLA-A2 on unpulsed T2 cells (human); test: flow cytometry on unpulsed T2 cells, anti-human IgG-Fc PE secondary, MFI
Text: (§1) Cells were acquired on FACS LSR II (BD), and data are presented as mean fluorescence intensity (MFI) of PE in Graphpad Prism.

[2] = target: T1, HLA-A2/WT1RMF complex on cells (human); test: flow cytometry on peptide-pulsed T2 cells, anti-human IgG-Fc PE secondary, MFI
T1 construct: also called RMF peptide-pulsed T2 cells; SKM-1 cells
Text: (§2) We first measured the binding specificity on peptide-pulsed T2 cells by the IgG binders generated from phage display by flow cytometry. […] Cells were acquired on FACS LSR II (BD), and data are presented as mean fluorescence intensity (MFI) of PE in Graphpad Prism.

[3] = target: T2, HLA-A2/WT1VLD complex on VLD peptide-pulsed T2 cells (human); test: as above
Text: as §2

[4] = target: T1, HLA-A2/WT1RMF complex on cells; test: as above; remark: listed apart in the source
Text: as §2

[5] = target: T2, HLA-A2/WT1VLD complex on VLD …; test: as above; remark: listed apart in the source
Text: as §2

[6] = target: T1, HLA-A2/WT1RMF complex on cells; test: as above; remark: listed apart in the source
Text: as §2

[7] = target: T2, HLA-A2/WT1VLD complex on VLD …; test: as above; remark: listed apart in the source
Text: as §2

[8] = target: T3, HLA-A2/WT1VLD complex (soluble) (human); test: SPR, pMHC captured by anti-His
T3 construct: also called HLA-A02/WT1VLD pMHC; HLA-A02/VLD pMHC
Experimental: (§3) For determination of avidity and specificity of the HLA-A2/WT1×CD3 bispecific antibodies to HLA-A2/WT1RMF, SPR experiments were again performed at 25° C. on a Biacore T200 with HBS-EP as running buffer (0.01 M HEPES pH 7.4, 0.15 M NaCl, 0.005% Surfactant P20 (GE Healthcare)). […] The HLA-A2/WT1RMF or HLA-A2/WT1VLD was captured for 30 sec and 10 μl/min at 5 or 10 nM (for the bispecific antibody or IgG measurement, respectively). […] The dissociation phase was monitored for 240 sec and triggered by switching from the sample solution to HBS-EP. The chip surface was regenerated after every cycle using an injection of 10 mM glycine pH 2 for 60 sec. Bulk refractive index differences were corrected for by subtracting the response obtained on the reference flow cell (which contains the anti-His antibody, but without HLA-A2/WT1RMF captured on it). Even though it is a 2:1 interaction (analyte is bivalent) the affinity constants were derived from the kinetic rate constants by fitting to a 1:1 Langmuir binding using the BIAeval software (GE Healthcare).

[9] = target: T4, HLA-A2/WT1RMF complex (soluble) (human); test: SPR, antibody captured (anti-human Fc), pMHC in solution; affinity
T4 construct: also called HLA-A02/WT1RMF pMHC; HLA-A02/RMF pMHC
Experimental: The bispecific constructs were captured for 30 s at 5 nM. […] The dissociation phase was monitored for 120 s and triggered by switching from the sample solution to HBS-EP. The chip surface was regenerated after every cycle using an injection of 3M MgCl₂ at 10 μl/min for 30 sec. Bulk refractive index differences were corrected for by subtracting the response obtained on the reference flow cell which contains the anti-human Fc antibody, but without bispecific construct captured on it. The affinity constants were derived from the kinetic rate constants by fitting to a 1:1 Langmuir binding using the BIAeval software (GE Healthcare).

[10] = target: T4, HLA-A2/WT1RMF complex (soluble); test: SPR, pMHC captured (anti-His), bivalent antibody in solution; avidity, average
Experimental: as §3

[11] = target: HLA-A2 on unpulsed T2 cells (human); test: flow cytometry on unpulsed T2 cells, anti-human IgG-Fc PE secondary, MFI; remark: listed apart in the source
Text: as §1

[12] = target: T1, HLA-A2/WT1RMF complex on cells; test: flow cytometry on peptide-pulsed T2 cells, anti-human IgG-Fc PE secondary, MFI; remark: listed apart in the source
Text: as §2

[13] = target: T2, HLA-A2/WT1VLD complex on VLD …; test: as above; remark: listed apart in the source
Text: as §2

[14] = target: T4, HLA-A2/WT1RMF complex (soluble); test: SPR, pMHC captured (anti-His), bivalent antibody in solution; apparent KD (avidity), average
Experimental: as §3

[15] = target: T2, HLA-A2/WT1VLD complex on VLD …; test: flow cytometry on peptide-pulsed T2 cells, anti-human IgG-Fc PE secondary, MFI; remark: listed apart in the source
Text: as §2

[16] = target: T5, CD3 (Homo sapiens (Human), UniProt P07766 23-126); test: method not stated
T5 construct: also called human CD3

[17] = target: HLA-A2 on unpulsed T2 cells (human); test: flow cytometry on unpulsed T2 cells, anti-human IgG-Fc PE secondary, MFI; remark: listed apart in the source
[18] = target: T1, HLA-A2/WT1RMF complex on cells; test: flow cytometry on peptide-pulsed T2 cells, anti-human IgG-Fc PE secondary, MFI; remark: listed apart in the source
Text: as §2

[19] = target: T2, HLA-A2/WT1VLD complex on VLD …; test: as above; remark: listed apart in the source
Text: as §2

[20] = target: T1, HLA-A2/WT1RMF complex on cells; test: as above; remark: listed apart in the source
Text: as §2

[21] = target: T2, HLA-A2/WT1VLD complex on VLD …; test: as above; remark: listed apart in the source
Text: as §2

[22] = target: T1, HLA-A2/WT1RMF complex on cells; test: flow cytometry on peptide-pulsed T2 cells, anti-human Fc secondary, MFI
Text: as §2

[23] = target: HLA-A2 with MED13L peptide … on peptide-pulsed T2 cells (human); test: as above
Text: as §2

B1: 5E11-IgG (antibody, V domains shown)
VH: QVQLVQSGAEVKKPGSSVKVSCKASGGTFSSYAISWVRQAPGQGLEWMGGIIPIFGTANYAQKFQGRVTITADKSTSTAYMELSSLRSEDTAVYYCARSSYDLYSFDYWGQGTTVTVSS
VL: DIQMTQSPSTLSASVGDRVTITCRASQSISSWLAWYQQKPGKAPKLLIYDASSLESGVPSRFSGSGSGTEFTLTISSLQPDDFATYYCQQYSFPPMITFGQGTKVEIK
binding result [1]: no binding (tested: 10 µg/ml) | EC50 (read off the curve) [2]: ~0.7 µg/mL | binding result [3]: no binding (tested: 10 µg/ml)

B2: 5C01-IgG (antibody, V domains shown)
VH: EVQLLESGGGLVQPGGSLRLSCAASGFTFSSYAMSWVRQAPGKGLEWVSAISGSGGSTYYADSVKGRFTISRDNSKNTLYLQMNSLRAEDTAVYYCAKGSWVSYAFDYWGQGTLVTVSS
VL: DIQMTQSPSTLSASVGDRVTITCRASQSISSWLAWYQQKPGKAPKLLIYDASSLESGVPSRFSGSGSGTEFTLTISSLQPDDFATYYCQQYSIWFPYTFGQGTKVEIK
binding result [4]: no binding (tested: 1 µg/ml) | EC50 (read off the curve) [5]: ~0.02 µg/mL

B3: 13B04-IgG (antibody, V domains shown)
VH: EVQLLESGPGLVKPSETLSLTCTVSGGSISSYYWSWIRQPPGKGLEWIGYIYYSGSTNYNPSLKSRVTISVDTSKNQFSLKLSSVTAADTAVYYCARVSYNGLDYWGQGTLVTVSS
VL: DIQMTQSPSTLSASVGDRVTITCRASQSISSWLAWYQQKPGKAPKLLIYDASSLESGVPSRFSGSGSGTEFTLTISSLQPDDFATYYCQQYNMWNPVTFGQGTKVEIK
binding result [6]: no binding (tested: 1 µg/ml) | EC50 (read off the curve) [7]: ~0.06 µg/mL

B4: 33H09-huIgG1 (antibody, V domains shown)
VH: QVQLVQSGAEVKKPGSSVKVSCKASGGTFSSYAISWVRQAPGQGLEWMGGIIPIFGTANYAQKFQGRVTITADKSTSTAYMELSSLRSEDTAVYYCARGSYDLFSLDYWGQGTTVTVSS
VL: DIQMTQSPSTLSASVGDRVTITCRASQSISSWLAWYQQKPGKAPKLLIYDASSLESGVPSRFSGSGSGTEFTLTISSLQPDDFATYYCQQYYDGITFGQGTKVEIK
notes: also called 33H09-IgG
binding result [8]: no binding (tested: 1.23 to 100 nM) | Kd [9]: 70 nM and 69 nM | koff [9]: 0.116 s⁻¹ and 0.124 s⁻¹ | kon [9]: 1.67e+06 M⁻¹ s⁻¹ and 1.8e+06 M⁻¹ s⁻¹ | koff [10]: 0.00357 s⁻¹ | kon [10]: 4.74e+06 M⁻¹ s⁻¹ | binding result [11]: no binding (tested: 1 µg/ml) | EC50 (read off the curve) [12]: ~0.06 µg/mL | binding result [13]: no binding (tested: 1 µg/ml) | Kd [14]: 0.75 nM

B5: 11G06-huIgG1 (antibody, V domains shown)
VH: QVQLVQSGAEVKKPGSSVKVSCKASGGTFSSYAISWVRQAPGQGLEWMGGIIPIFGTANYAQKFQGRVTITADKSTSTAYMELSSLRSEDTAVYYCARTGPYYGAFDYWGQGTTVTVSS
VL: DIQMTQSPSTLSASVGDRVTITCRASQSISSWLAWYQQKPGKAPKLLIYDASSLESGVPSRFSGSGSGTEFTLTISSLQPDDFATYYCQQGFRGYTFGQGTKVEIK
notes: also called 11G06-IgG
binding result [15]: binds

B6: CD3 binder V9 (antibody, V domains shown)
VH: EVQLVESGGGLVQPGGSLRLSCAASGYSFTGYTMNWVRQAPGKGLEWVALINPYKGVSTYNQKFKDRFTISVDKSKNTAYLQMNSLRAEDTAVYYCARSGYYGDSDWYFDVWGQGTLVTVSS
VL: DIQMTQSPSSLSASVGDRVTITCRASQDIRNYLNWYQQKPGKAPKLLIYYTSRLESGVPSRFSGSGSGTDYTLTISSLQPEDFATYYCQQGNTLPWTFGQGTKVEIK
Kd [16]: 35 to 50 nM

B7: 11D06-huIgG1 (antibody, V domains shown)
VH: QVQLVQSGAEVKKPGSSVKVSCKASGGTFSSYAISWVRQAPGQGLEWMGGIIPIFGTANYAQKFQGRVTITADKSTSTAYMELSSLRSEDTAVYYCARSIELWWGGFDYWGQGTTVTVSS
VL: DIQMTQSPSTLSASVGDRVTITCRASQSISSWLAWYQQKPGKAPKLLIYDASSLESGVPSRFSGSGSGTEFTLTIGSLQPDDFATYYCQQYEDYTTFGQGTKVEIK
notes: also called 11D06-IgG; 11D06 IgG
binding result [8]: no binding (tested: 1.23 to 100 nM) | Kd [9]: 35 nM and 34 nM | koff [9]: 0.0378 s⁻¹ and 0.0357 s⁻¹ | kon [9]: 1.08e+06 M⁻¹ s⁻¹ and 1.04e+06 M⁻¹ s⁻¹ | koff [10]: 0.00181 s⁻¹ | kon [10]: 2.97e+06 M⁻¹ s⁻¹ | binding result [17]: no binding (tested: 10 µg/ml) | EC50 (read off the curve) [18]: ~0.06 µg/mL | binding result [19]: no binding (tested: 10 µg/ml) | Kd [14]: 0.61 nM

B8: 11B09-IgG (antibody, V domains shown)
VH: QVQLVQSGAEVKKPGSSVKVSCKASGGTFSSYAISWVRQAPGQGLEWMGGIIPIFGTANYAQKFQGRVTITADKSTSTAYMELSSLRSEDTAVYYCARVPGRWYGAMDYWGQGTTVTVSS
VL: DIQMTQSPSTLSASVGDRVTITCRASQSISSWLAWYQQKPGKAPKLLIYDASSLESGVPSRFSGSGSGTEFTLTISSLQPDDFATYYCQQEDDYPLTFGQGTKVEIK
binding result [20]: no binding (tested: 1 µg/ml) | EC50 (read off the curve) [21]: ~0.02 µg/mL

B9: ESK1-TCB (bispecific antibody, V domains shown)
VH 1: QMQLVQSGAEVKEPGESLRISCKGSGYSFTNFWISWVRQMPGKGLEWMGRVDPGYSYSTYSPSFQGHVTISADKSTSTAYLQWNSLKASDTAMYYCARVQYSGYYDWFDPWGQGTLVTVSS
VL 1: not shown
VH 2: not shown
VL 2: QAVVTQEPSLTVSPGGTVTLTCGSSTGAVTTSNYANWVQEKPGQAFRGLIGGTNKRAPGTPARFSGSLLGGKAALTLSGAQPEDEAEYYCALWYSNLWVFGGGTKLTVL
EC50 (read off the curve) [22]: ~1 µg/mL | EC50 (read off the curve) [23]: ~0.3 µg/mL

B10: CD3 binder CH2527 (antibody, V domains shown)
VH: not shown
VL: QAVVTQEPSLTVSPGGTVTLTCGSSTGAVTTSNYANWVQEKPGQAFRGLIGGTNKRAPGTPARFSGSLLGGKAALTLSGAQPEDEAEYYCALWYSNLWVFGGGTKLTVL
Kd [16]: 85 to 130 nM
